Measurements as given in patent US11708423B2, “Chimeric engulfment receptor molecules and methods of use” (CERO THERAPEUTICS, INC., priority 2017, dated 2023).

B1: CER104: Tim4 binding and transmembrane domains, TLR8 primary and DAP12 secondary signaling domains; SEQ ID NO:133 (protein)
chain: MSKGLLLLWLVTELWWLYLTPAASEDTIIGFLGQPVTLPCHYLSWSQSRNSMCWGKGSCPNSKCNAELLRTDGTRIISRKSTKYTLLGKVQFGEVSLTISNTNRGDSGVYCCRIEVPGWFNDVKKNVRLELRRATTTKKPTTTTRPTTTPYVTTTTPELLPTTVMTTSVLPTTTPPQTLATTAFSTAVTTCPSTTPGSFSQETTKGSAFTTESETLPASNHSQRSMMTISTDIAVLRPTGSNPGILPSTSQLTTQKTTLTTSESLQKTTKSHQINSRQTILIIACCVGFVLMVLLFLAFLHHLFYWDVWFIYNVCLAKVKGYRSLSTSQTFYDAYISYDTKDASVTDWVINELRYHLEESRDKNVLLCLEERDWDPGLAIIDNLMQSINQSKKTVFVLTKKYAKSWNFKTAFYLALQRLMDENMDVIIFILLEPVLQHSQYLRLRQRICKSSILQWPDNPKAEGLFWQTLRNVVLTENDSRYNNMYVDSIKQYYFLGRLVPRGRGAAEAATRKQRITETESPYQELQGQRSDVYSDLNTQRPYYK
modifications: CER104 protein
B2: CER123: Tim4 binding and transmembrane domains, TLR2 primary and TRAF6 secondary signaling domains; SEQ ID NO:150 (protein)
chain: MSKGLLLLWLVTELWWLYLTPAASEDTIIGFLGQPVTLPCHYLSWSQSRNSMCWGKGSCPNSKCNAELLRTDGTRIISRKSTKYTLLGKVQFGEVSLTISNTNRGDSGVYCCRIEVPGWFNDVKKNVRLELRRATTTKKPTTTTRPTTTPYVTTTTPELLPTTVMTTSVLPTTTPPQTLATTAFSTAVTTCPSTTPGSFSQETTKGSAFTTESETLPASNHSQRSMMTISTDIAVLRPTGSNPGILPSTSQLTTQKTTLTTSESLQKTTKSHQINSRQTILIIACCVGFVLMVLLFLAFLHRFHGLWYMKMMWAWLQAKRKPRKAPSRNICYDAFVSYSERDAYWVENLMVQELENFNPPFKLCLHKRDFIPGKWIIDNIIDSIEKSHKTVFVLSENFVKSEWCKYELDFSHFRLFDENNDAAILILLEPIEKKAIPQRFCKLRKIMNTKTYLEWPMDEAQREGFWVNLRAAIKSMSLLNCENSCGSSQSESDCCVAMASSCSAVTKDDSVGGTASTGNLSSSFMEEIQGYDVEFDPPLESKYECPICLMALREAVQTPCGHRFCKACIIKSIRDAGHKCPVDNEILLENQLFPDNFAKREILSLMVKCPNEGCLHKMELRHLEDHQAHCEFALMDCPQCQRPFQKFHINIHILKDCPRRQVSCDNCAASMAFEDKEIHDQNCPLANVICEYCNTILIREQMPNHYDLDCPTAPIPCTFSTFGCHEKMQRNHLARHLQENTQSHMRMLA
modifications: CER123 protein
B3: CER21: Tim4 binding and transmembrane domains, TLR8 signaling domain; SEQ ID NO:88 (protein)
chain: MSKGLLLLWLVTELWWLYLTPAASEDTIIGFLGQPVTLPCHYLSWSQSRNSMCWGKGSCPNSKCNAELLRTDGTRIISRKSTKYTLLGKVQFGEVSLTISNTNRGDSGVYCCRIEVPGWFNDVKKNVRLELRRATTTKKPTTTTRPTTTPYVTTTTPELLPTTVMTTSVLPTTTPPQTLATTAFSTAVTTCPSTTPGSFSQETTKGSAFTTESETLPASNHSQRSMMTISTDIAVLRPTGSNPGILPSTSQLTTQKTTLTTSESLQKTTKSHQINSRQTILIIACCVGFVLMVLLFLAFLHHLFYWDVWFIYNVCLAKVKGYRSLSTSQTFYDAYISYDTKDASVTDWVINELRYHLEESRDKNVLLCLEERDWDPGLAIIDNLMQSINQSKKTVFVLTKKYAKSWNFKTAFYLALQRLMDENMDVIIFILLEPVLQHSQYLRLRQRICKSSILQWPDNPKAEGLFWQTLRNVVLTENDSRYNNMYVDSIKQY
modifications: CER21 chimeric engulfment receptor

Columns and labels:
Format in all cases: cell-based
ALK+A549 cells = assay: Phagocytosis of ALK inhibitor treated A549 ALK+ cells by CER T cells (fluorescent microscopy); details: 12 hours; for phagocytosis of A549 cells: CD4 T cells
From the text: An ELM4-ALK translocation was introduced into A549 cells. […] CD4 T cells are modified to express CER104 or CER117 and labeled with CELLTRACE Violet. CER117 has a polypeptide sequence set forth in SEQ ID NO:144 and comprises a Tim4 binding domain, a Tim4 transmembrane domain, and an engulfment signaling domain comprising a primary engulfment signaling domain comprising a TLR8 signaling domain and a secondary engulfment signaling domain comprising a TRAF6 signaling domain. The ALK+A549 cells were then co-cultured with CER104- or CER117-expressing CD4+ T cells or Mock-transduced (vector only) T cells for 12 hours and images were obtained by fluorescent microscopy at 40× magnification (FIGS. 62A-E). White arrows indicate exemplary phagocytic events (pH rodo red cell targets within CELLTRACE Violet labeled CD4+ T cells).
CER123- and CER126-transduced CD4+ and CD8+ T cells were labeled with CELLTRACE Violet and co-cultured with the A549 ALK-positive cells. Co-cultured cells were imaged by fluorescent microscopy at 63× magnification after 12 hours (FIGS. 63A-F). White arrows indicate exemplary phagocytic events (pHrodo red targets within CELLTRACE Violet-labeled CD4 T cells).
Phagocytosis of Alectinib-treated ALK+A549 cells by CER-expressing T cells was also quantified. […] Bar graph in FIG. 64A represents quantification of percentage phagocytosis calculated as ((number of phagocytic target events)/(total number of effector cells))*100. Events were calculated from fluorescent 3×3 stitched images at 40×resolution after 12 hours of co-culture. Bar graph in FIG. 64B represents quantification of adjusted phagocytic index calculated as (median area ratio of target events in effector cells*phagocytosis). Events calculated from fluorescent 3×3 stitched images at 40×resolution after 12 hours of co-culture.
CER21−, CER27−, CER30−, CER108−, CER110−, CER112−, CER120−, CER123−, CER124−, CER126−, CER127−, or CER104-transduced CD4+ T cells were co-cultured with Alectinib-treated A549 cells at a 1:1 ratio for 12 hours. Phagocytic events were calculated from 3×3 stitched fluorescent microscopy images at 40X resolution. […] Images were obtained after 12 hours of co-culture. Yellow triangles indicate exemplary phagocytic events (pHrodo red targets within CELLTRACE violet labeled CD4+ T cells).
A time course study of phagocytic uptake of tumor cells by CER-transduced T cells was performed. CD4+ T cells were transduced with a lentiviral vector comprising CER122 nucleic acid. Mock-transduced (vector only) CD4+ T cells were used as control. CER122-transduced T cells were labeled with CELLTRACE violet and co-cultured with pHrodo red labeled A549 ALK+ lung adenocarcinoma cells. Fluorescent microscopy images were obtained at 4, 8, and 16 hours co-culture (FIG. 72C), and % phagocytosis (FIG. 72A) and phagocytic index (FIG. 72B) were calculated.

A549 ALK+ cells = assay: MTT viability and bright field microscopy of A549 ALK+ cells with CER T cells and ALK inhibitor; details: for in vitro growth/viability of A549 ALK+ cells (MTT): Alectinib or Crizotinib 250 nM-10 μM, E:T 2:1 and 5:1
From the text: An […] translocation was introduced into A549 cells. […] CER104 has a polypeptide sequence set forth in SEQ ID NO:133 and comprises a Tim4 binding domain, Tim4 transmembrane domain, and an engulfment signaling domain comprising a primary engulfment signaling domain comprising a TLR8 signaling domain and a secondary engulfment signaling domain comprising a DAP12 signaling domain. CER122 has a polypeptide sequence set forth in SEQ ID NO:149 and comprises a Tim4 binding domain, Tim4 transmembrane domain, and an engulfment signaling domain comprising a primary engulfment signaling domain comprising a TLR2 signaling domain and a secondary engulfment signaling domain comprising a DAP12 signaling domain. Effector:target (E:T) cell ratio for co-culture was 2:1 or 5:1. […] Cell viability experiments were performed in triplicates and presented as % of control. Best-fit curves were generated from raw data using linear regression models.
CER21−, CER108−, CER104−, and CER129-transduced CD4+ T cells were tested for their ability to kill A549 ALK+ cells in the presence of ALK inhibitor. CD4+ T cells were transduced with a lentiviral vector comprising a CER21, CER108, CER104, CER129, CER27, CER120, CER122, CER123, CER124, or CER126 nucleic acid. […] After 48 hours of co-culture, T cells were washed away and the number of viable A549 ALK+ cells was quantified using a calorimetric MTT assay (FIGS. 67A-B). Cell viability experiments were performed in triplicates and presented as % of control. Bright field microscopy images were also obtained from A549 ALK+co-culture experiments. […] Arrow indicates cluster of dead A549 ALK+ cells surrounded by phagocytic CER104+ T cells. […]

[1] = system: H1975 lung adenocarcinoma cells; assay: LDH assay, H1975 cells, 48 hours co-culture with 1 μM Osimeritinib; details: E:T 1:1, 48 hours, CD4+ T cells
From the text: CER30 comprises a Tim4 binding domain, Tim4 transmembrane domain, and an engulfment signaling domain comprising a primary engulfment signaling domain comprising a TRAF2 signaling domain. CER30 has a polypeptide sequence as set forth in SEQ ID NO:96. CER110 has a polypeptide sequence of SEQ ID NO:125 and comprises a Tim4 binding domain, Tim4 transmembrane domain, and an engulfment signaling domain comprising a primary engulfment signaling domain comprising a TRAF6 signaling domain and a secondary engulfment signaling domain comprising a DAP12 signaling domain. CER112 has a polypeptide sequence of SEQ ID NO:128 and comprises a Tim4 binding domain, Tim4 transmembrane domain, and an engulfment signaling domain comprising a primary engulfment signaling domain comprising a TRAF6 signaling domain and a secondary engulfment signaling domain comprising a NFAM1 signaling domain. CER127 has a polypeptide sequence of SEQ ID NO:175 and comprises a Tim4 binding domain, Tim4 transmembrane domain, and an engulfment signaling domain comprising a primary engulfment signaling domain comprising a TRAF2 signaling domain and a secondary engulfment signaling domain comprising a TLR2 signaling domain. H1975 cells are more resistant to EGFR inhibitors, so Osimeritinib was used at slightly higher concentration. H1975 lung adenocarcinoma cells harboring an EGFR mutation were co-cultured with CER-expressing or mock-transduced (vector only) CD4+ T cells with 1 μM of Osimeritinib. After 48 hours of co-culture at a 1:1 effector:target cell ratio, T cells were washed away, and the number of viable H1975 cells was quantified using a calorimetric LDH assay (FIG. 57). Cell viability experiments were performed in triplicate and presented as % of control.

| Molecule | phagocytosis of A549 cells (ALK+A549 cells; 1 μM Alectinib) | phagocytosis of A549 cells (ALK+A549 cells; 1 μM Crizotinib) | bright field microscopy of A549 ALK+ co-culture (A549 ALK+ cells; Alectinib 3.7 μM, 48 hours, vs mock-transduced T cells) | in vitro growth/viability of A549 ALK+ cells (MTT) (A549 ALK+ cells; 48 hours) | in vitro growth/viability of A549 ALK+ cells (MTT) (A549 ALK+ cells; 72 hours) | killing of H1975 cells (LDH) [1] | phagocytic elimination of ALK+A549 cells (ALK+A549 cells; 2.5 μM Alectinib) |
| --- | --- | --- | --- | --- | --- | --- | --- |
| B1 | phagocytosed A549 cells | phagocytosed A549 cells | cluster of dead A549 ALK+ cells surrounded by phagocytic CER104^+ T cells | synergistically suppress in vitro growth of NSCLC cells harboring ALK rearrangements | synergistically suppress in vitro growth of NSCLC cells harboring ALK rearrangements | synergistic killing of H1975 lung adenocarcinoma cells upon EGFR inhibition |  |
| B2 |  |  |  |  |  | synergistic killing of H1975 lung adenocarcinoma cells upon EGFR inhibition | phagocytic elimination of ALK+A549 cells |
| B3 |  |  |  |  |  | synergistic killing of H1975 lung adenocarcinoma cells upon EGFR inhibition |  |
